Laboratory results published in the DeepSol protein solubility set.

Test: soluble on expression in E. coli; label from the status in PepcDB or PDB records

Question: For “MSLAFPKIISVDDHTVEPPDVWRDRLPKKYQDTGPRIVRAPLKEMTFLGGKFAPVMGGPGDDGPLGDWWVYEDLHRPLTRLDTAVGYSRDEIKLEVITYEQMRPGSYDVPRRLADMDVNHVQSALCFPTFPRFCGQTFTEAKDRELGLLGVRAYNDWMVEEWCGPDAHGRLIPLTLVPLWDARLAAAEVRRNAARGVRAVAFSEIPPHLGLPSVHTDDWDPFLAACDETGTVIAMHIGSSSRMPSTSADAPPAVGSTITFANCCFSMVDWLMSGKFERFPNLRVMYAEGQIGWIPYILERADVVWEENRGWGGVADKVHRPPSELFAGHVFGCFFDDAFGLRNLDAIGIGNVLYETDYPHSDSTWPKSREVGEAQMGHLEAEVVERIVRGNAIELLGLTDDGEGHHHHHH”, which “soluble on expression in E. coli” value is on record?
Answer: The value was “not soluble”.

Question: For “MSLAGKKIVLGVSGGIAAYKTPELVRRLRDRGADVRVAMTEAAKAFITPLSLQAVSGYPVSDSLLDPAAEAAMGHIELGKWADLVILAPATADLIARVAAGMANDLVSTICLATPAPVAVLPAMNQQMYRAAATQHNLEVLASRGLLIWGPDSGSQACGDIGPGRMLDPLTIVDMAVAHFSPVNDLKHLNIMITAGPTREPLDPVRYISNHSSGKMGFAIAAAAARRGANVTLVSGPVSLPTPPFVKRVDVMTALEMEAAVNASVQQQNIFIGCAAVADYRAATVAPEKIKKQATQGDELTIKMVKNPDIVAGVAALKDHRPYVVGFAAETNNVEEYARQKRIRKNLDLICANDVSQPTQGFNSDNNALHLFWQDGDKVLPLERKELLGQLLLDEIVTRYDEKNRR”, which “soluble on expression in E. coli” value is on record?
Answer: The value was “soluble”.

Question: With “MSLAGSWETYTMKVPSEKNLPTTKVVLKMPKDVEFQQYEPIPGWKVSTQKHDDKSVSVTWEATDGGIQEGQFQQFTFVAKNPDKAEEAAWDAYQYYKDGSIVEWTGDEDADTPHSITNITSAKQVTDEHGATKTEDDSENSGSSALDITAMVLSAAAIILSVAALVKKKRAEGHHHHHH” as the sequence, how does the “soluble on expression in E. coli” value read?
Answer: The value was “soluble”.

Question: Which “soluble on expression in E. coli” value does the source give for “MSLAHAQMEMPPRSLGAVIEQAEAQEAPILLEVYAPWCPYCQRMQENVYADAEVRSYLDRRFTYARLNRDTTGGTHRFNGRTLSSKELGMALGARGVPTTVFMKPDGTPIAKQPGYIKRPVFLQMLRYFGSGAYEEQSFEAFRARASEGHHHHHH” here?
Answer: The value was “not soluble”.

Question: With “MSLAHEMIGTQIVTERLVALLESGTEKVLLIDSRPFVEYNTSHILEAININCSKLMKRRLQQDKVLITELIQHSAKHKVDIDCSQKVVVYDQSSQDVASLSSDCFLTVLLGKLEKSFNSVHLLAGGFAEFSRCFPGLCEGKSTLVPTCISQPCLPVANIGPTRILPNLYLGCQRDVLNKELMQQNGIGYVLNASNTCPKPDFIPESHFLRVPVNDSFCEKILPWLDKSVDFIEKAKASNGCVLVHCLAGISRSATIAIAYIMKRMDMSLDEAYRFVKEKRPTISPNFNFLGQLLDYEKKIKNQTEGHHHHHH” as the sequence, how does the “soluble on expression in E. coli” value read?
Answer: The value was “soluble”.

Question: Which “soluble on expression in E. coli” value does the source give for “MSLAIQNPYTAYQQNSVNTATPGELTLMLYNGCLKFIRLAAQAIENDDMERKNENLIKAQNIIQELNFTLNRNIELSASMGAMYDYMYRRLVQANIKNDTGMLAEVEGYVTDFRDAWKQAIQSERKDRHGSGGIAEGGSHHHHHH” here?
Answer: The value was “soluble”.

Question: With “MSLAKGIMLHEVGEQVDQYLLIKSSTKGIASNGKPFLTLMLQDQSGDIEAKLWDAKQSDEVTYAPQTIVKVVGDVHHYRGRTQLKLRNIRPVSEQENVNIDDFLETAPIPKNEMMDTITQYIFEMKNPNIQRITRFLVKKHEAEFMDYPAATKNHHEFVSGLAYHVVSMLNLAKAIADLYPSLDRDLLYAGVILHDLGKVKELSGPVSTSYTVEGNLLGHISIMVTELSKAAEELQIDSEEVLILQHLILSHHGKAEWGSPKPPMVKEAEILHYIDNLDAKMNMMDRALERVKPGEYTERVFALENRSFYKPTFHKEGGSHHHHHH” as the sequence, how does the “soluble on expression in E. coli” value read?
Answer: Its value is “soluble”.

Question: For “MSLAKNIVFIGFMGSGKSTLARALAKDLDLVFLDSDFLIEQKFNQKVSEIFEQKRENFFREQEQKMADFFSSCEKACIATGGGFVNVSNLEKAGFCIYLKADFEYLKKRLDKDEISKRPLFYDEIKAKKLYNERLSKYEQKANFILNIENKNIDELLSEIKKVIKEGGSHHHHHH”, which “soluble on expression in E. coli” value is on record?
Answer: Its value is “soluble”.

Question: Which “soluble on expression in E. coli” value does the source give for “MSLAKRIVPCLDVHAGRVVKGVNFVNLRDAGDPVEAARAYDEAGADELVFLDISATHEERAILLDVVARVAERVFIPLTVGGGVRSLEDARKLLLSGADKVSVNSAAVRRPELIRELADHFGAQAVVLAIDARWRGDFPEVHVAGGRVPTGLHAVEWAVKGVELGAGEILLTSMDRDGTKEGYDLRLTRMVAEAVGVPVIASGGAGRMEHFLEAFQAGAEAALAASVFHFGEIPIPKLKRYLAEKGVHVRLD” here?
Answer: The value was “soluble”.

Question: Which “soluble on expression in E. coli” value does the source give for “MSLALGSYIERRGELETYFDRTAADTWAKLTSDAPVSGIRATVRAGRDEMRNTLLSWLPADMTGTRLLDAGCGTGALSIEAARRGAKIVAIDLSPTLVAVARERLPDDIDPAAIDFRSGDMLDPELGEFDFVVAMDSLIHYLPHDICRMLATLASRTRQSMAVTFAPKTPLLTLMHFVGGFFPRADRAPAIEPISEKTLRGLVAEDPLLAQWQPGRTHRVSSGFYTSQALEMVREGHHHHHH” here?
Answer: The value was “soluble”.

Question: With “MSLALVVQKYGGSSVADAERIRRVAERIVATKKQGNDVVVVVSAMGDTTDDLLDLAQQVCPAPPPRELDMLLTAGERISNALVAMAIESLGAHARSFTGSQAGVITTGTHGNAKIIDVTPGRLQTALEEGRVVLVAGFQGVSQDTKDVTTLGRGGSDTTAVAMAAALGADVCEIYTDVDGIFSADPRIVRNARKLDTVTFEEMLEMAACGAKVLMLRCVEYARRHNIPVHVRSSYSDRPGTVVVGSIKDVPMEDPILTGVAHDRSEAKVTIVGLPDIPGYAAKVFRAVARRRRQHRHGAAERLQGRGRQDRHHLHLLPQTSGPPPWKNWTRSETRSASTQLLYDDHIGKVSLIGAGMRSHPGVTATFCEALAAVGVNIELISTSEDQRSRCCAATPNWTRPWSRCMKRSGSAATRRPRCTRGRDGRWACQEGHHHHHH” as the sequence, how does the “soluble on expression in E. coli” value read?
Answer: The value was “not soluble”.

Question: Which “soluble on expression in E. coli” value does the source give for “MSLANLFESHSPAGPLANRMRPQSLDEIVGQRHLIGESTLLRRAILADRLGTVIFYGPPGTGKTTLARVISSYTKSAFEQLNAVTAKLDQLREVLKAAESRLQFDQQKTILFLDEIHRFNKMQQDALLPALEAGTITLIGATTENPSFEVNAALLSRATVFRFETPTTEDLRVVLHRTLHDTERGLGKYPITVTEEAVDHYVKLSDGDYRALLNALELAVLTTPEIDGEITIDLSVAEESIQQKALKYDKDGDRHYDVISAFIKSIRGSDPDAALYWLAVMIEAGESPRFIVRRLYVHAAEDIGMSDPQALLIVDACARACEYIGFPEARIPLAETVLYLATAPKSNTVITAIDQALELVRRSDGGPVPPHLRDAHHAGAAALGNGVEYQYPHQFPHAYVKQNYWPENLARTKPVFYKPSPRGFEKQLQARLDFWKKQEGHHHHHH” here?
Answer: Its value is “soluble”.

Question: For “MSLAPRLKLRDITFFERPVQFARPFRFGAITMNATTQLFVRVEIEVEGRGSAVGASAELLVPKWFDKRPEFSPAQTVDGLRRSLEIARGLYLARTGFLTAFDLHAACIGAQIATCAKKNIPALAAAYGLAEIDKAILDALLRGVETGFFDGMAGNVAGIDARLSPDLKDAEIAAFLSSRKPLPRVAIRHTVGLDDTVEGKGGVADAHENAGASYFKLKLSGDPAADAARLARIGKELDTLGRSYKVTLDANEQYADLAALQALMDRLDHDSDLRPIASRLLYVEQPMPRDITRQSPLGSLAARGFIIDEADDSYDAFPAARALGYHGISSKSCKGLYKSIVSATRAAKWSGGGEKFFVTGEDLTCQAGLAVQQDLAMGAFLGVTHAERNGHHYVDGFGDTPAAEAAAFAAAHPDLYADAGQGIRLSIHDGDLLTGSLHAAGFATSVHPDWSALRPLEQPTSLQEQLAEGHHHHHH”, which “soluble on expression in E. coli” value is on record?
Answer: Its value is “not soluble”.

Question: Which “soluble on expression in E. coli” value does the source give for “MSLAPVNIFKAGADEERAETARLTSFIGAIAIGDLVKSTLGPKGMDKILLSSGRDASLMVTNDGATILKNIGVDNPAAKVLVDMSRVQDDEVGDGTTSVTVLAAELLREAESLIAKKIHPQTIIAGWREATKAAREALLSSAVDHGSDEVKFRQDLMNIAGTTLSSKLLTHHKDHFTKLAVEAVLRLKGSGNLEAIHIIKKLGGSLADSYLDEGFLLDKKIGVNQPKRIENAKILIANTGMDTDKIKIFGSRVRVDSTAKVAEIEHAEKEKMKEKVERILKHGINCFINRQLIYNYPEQLFGAAGVMAIEHADFAGVERLALVTGGEIASTFDHPELVKLGSCKLIEEVMIGEDKLIHFSGVALGEACTIVLRGATQQILDEAERSLHDALCVLAQTVKDSRTVYGGGCSEMLMAHAVTQLANRTPGKEAVAMESYAKALRMLPTIIADNAGYDSADLVAQLRAAHSEGNTTAGLDMREGTIGDMAILGITESFQVKRQVLLSAAEAAEVILRVDNIIKAAPRKRVPDHHEGHHHHHH” here?
Answer: Its value is “soluble”.

Question: With “MSLAQVEQVIQVGHLLDVRTGNYQKNKAILVEAGRISAIVDADQAPKNVQVIDLSTHYVVPGLIDMHVHLTSDPQKHGYRGLVETPTREAIFGVSAAKATLKAGFTTVRNLGAAGFADVSLRDAIDDGEIQGPRMRVAANTICITGGHCDNNLLPHIYNSRSAGVANGPDEVRAKVRENIKYGADVIKFAATGGVLSKNTDVNASQYNFEEMKALIDEAHDRGRIVAAHAHGLQGIKRAIEAGVDSIEHGSFIDDDAIKLAKKHGTYLVMDVYVSDYILSEGEKAGILPESLAKEKKVGLLQRQNFQKAVKAGVKMAYGTDAGVYTHGLNGRQFAYMVQWGMTPLQAIQAATVNAGTLLNWKNEQGQQNVGVLEVGAFADLVAVPVDPLTQEGHHHHHH” as the sequence, how does the “soluble on expression in E. coli” value read?
Answer: The value was “soluble”.

Question: Which “soluble on expression in E. coli” value does the source give for “MSLARFVVLVIDSFGVGAMKDVTLVRPQDAGANTCGHILSQLPHLQLPTLETLGLINALGYAPGDMQPSDSATWGVAELQHEGGDTFMGHQEILGTRPLPPLRMPFRDVIDRVEQALVSAGWQVERRGDDLQFLWVNQAVAIGDNLEADLGQVYNITANLSVISFDDAIKIGRIVREQVQVGRVITFGGLLTDSQRILDAAESKEGRFIGINAPRSGAYDNGFQVVHMGYGVDEKVQVPQKLYEAGVPTVLVGKVADIVNNPYGVSWQNLVDSQRIMDITLNEFNTHPTAFICTNIQETDLAGHAEDVARYAERLQVVDRNLARLVEAMQPDDCLVVMADHGNDPTIGHSHHTREVVPVLVYQQGMIATQLGVRTTLSDVGATVCEFFRAPPPQNGRSFLSSLRFAGDTLEGHHHHHH” here?
Answer: The value was “soluble”.

Question: With “MSLARLEPWAEKLTSDPATCRHLIEEFGSPVNVLHSGSMPRNINELVDAGIQMGVDTRIFFARKANKGLTFVDAVKDTGHGVDVASERELSQVLNRGVPGERIILSAAIKPDRLLALAIENGVIISVDSRDELDRISALVGDRVARVAPRVAPDPAVLPPTRFGERAADWGNRLTEVIPGVDIVGLHVHLHGYAAKDRALALQECCQLVDSLRECGHSPQFIDLGGGVPMSYIESEEDWIRYQSAKSATSAGYAESFTWKDDPLSNTYPFYQTPVRGNWLKDVLSKGVAQMLIDRGLRLHLEPGRSLLDGCGVTLAEVAFVKTRSDGLPLVGLAMNRTQCRTTSDDFLIDPLHITDGDVGEEIEAYLVGAYCIEDELILRRRIRFPRGVKPGDIIGIPNTAGYFMHILESASHQIPLAKNVVWPEGQLDDIDADEGHHHHHH” as the sequence, how does the “soluble on expression in E. coli” value read?
Answer: Its value is “soluble”.

Question: With “MSLATKFQESEQQGRKREFMNQRNAFFILELELTQEETDAFLPLYNELDTKRYELWKDVRQKRALMERKAELTDADMELIINKSLDNKIAEARLEKEYYYKFKRVLPMRKVMALKVAERKFARLFLKSSYDEGHHHHHH” as the sequence, how does the “soluble on expression in E. coli” value read?
Answer: The value was “soluble”.

Question: Which “soluble on expression in E. coli” value does the source give for “MSLAYKPDDAAPFRSVTRQVLFSDLRLGCEWRYFEVAEGGYSTLERHQHVHATMIHRGRGQCLVGDVISDVAVGDLVFIPPMTWHQFRANAGDVLGFLCLVNADRDREGHHHHHH” here?
Answer: The value was “not soluble”.

Question: With “MSLCELLGMSANVPTDIVFSFTGLMQRGGGTGPHRDGWGIAFYEGRGVRLFQDPLASVDSEVARLVQRFPIKSETVIGHIRQANVGKVGLSNTHPFIRELGGRYWTFAHNGQLADFQPKPGFYRPVGETDSEAAFCDLLNRVRRAFPEPVPVEVLLPVLISACDEYRKKGVFNALISDGDWLFTFCSSKLAYITRRAPFGPARLKDADLTVDFHAETTPDDVVTVIATEPLTDNENWTLQQSGEWVLWWGGEVLAKGEGGSHHHHHH” as the sequence, how does the “soluble on expression in E. coli” value read?
Answer: Its value is “soluble”.
